The series relates to Escherichia coli TOP10. Nature of the series: shrunken log2 fold change of peptide-encoding DNA abundance (4.5 h post-induction vs induction); higher = less antimicrobial activity (less host growth inhibition). Particulars: time post-induction: 4.5 h; library: site-saturation at positions 5, 18, 19, 20.

The results in this text go back to the supplement of paper PMC9112550, “Optimization of the antimicrobial peptide Bac7 by deep mutational scanning” (BMC Biology, 2022).
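Further: peptides expressed intracellularly from a pBAD plasmid library in pooled LB shake-flask culture, induced with 0.3% L-arabinose, DNA abundance read by NGS, three biological replicates, DESeq2 with apeglm shrinkage.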

With RRIRMRPPRLPRPRPRPSSIPRP, the “shrunken log2 fold change” value was -0.0701.

Regarding RRIRNRPPRLPRPRPRPREDPRP, the “shrunken log2 fold change” value amounted to 0.102.

With RRIRLRPPRLPRPRPRPSTWPRP, the “shrunken log2 fold change” value was -0.53.

In the case of RRIRQRPPRLPRPRPRPARKPRP, the “shrunken log2 fold change” value worked out at 0.0862.

As for RRIRDRPPRLPRPRPRPIKPPRP, the “shrunken log2 fold change” value was -0.00115.

With RRIRCRPPRLPRPRPRPKCFPRP, the “shrunken log2 fold change” value was -0.372.

Turning to RRIRHRPPRLPRPRPRPVFWPRP, the “shrunken log2 fold change” value came to 0.0698.

For the sequence RRIRMRPPRLPRPRPRPHEPPRP, the “shrunken log2 fold change” value was -0.0151.

Turning to RRIRHRPPRLPRPRPRPLMYPRP, the “shrunken log2 fold change” value was -0.711.

On to RRIRIRPPRLPRPRPRPMDIPRP, for which the “shrunken log2 fold change” value is -0.911.

As for RRIRPRPPRLPRPRPRPVEYPRP, the “shrunken log2 fold change” value is -0.156.

As to RRIRARPPRLPRPRPRPRKWPRP, the “shrunken log2 fold change” value came to 1.28.

As to RRIRYRPPRLPRPRPRPWTQPRP, the “shrunken log2 fold change” value was -0.343.

In the case of RRIRDRPPRLPRPRPRPMYHPRP, the “shrunken log2 fold change” value was determined as 0.0212.

Turning to RRIRHRPPRLPRPRPRPGCRPRP, the “shrunken log2 fold change” value was 0.704.

In the case of RRIRQRPPRLPRPRPRPVHKPRP, the “shrunken log2 fold change” value worked out at 0.0383.

For the sequence RRIRYRPPRLPRPRPRPHLWPRP, the “shrunken log2 fold change” value is -0.255.

On to RRIRCRPPRLPRPRPRPAEAPRP, for which the “shrunken log2 fold change” value was 0.12.

With RRIRKRPPRLPRPRPRPWLRPRP, the “shrunken log2 fold change” value was 0.143.

As for RRIRQRPPRLPRPRPRPMKKPRP, the “shrunken log2 fold change” value was 0.0152.

For RRIRPRPPRLPRPRPRPGPPPRP, the “shrunken log2 fold change” value amounted to 0.366.

Regarding RRIRMRPPRLPRPRPRPYARPRP, the “shrunken log2 fold change” value is -0.00176.

RRIRMRPPRLPRPRPRPCDHPRP: the “shrunken log2 fold change” value came out at 0.00316.

As for RRIRWRPPRLPRPRPRPPYCPRP, the “shrunken log2 fold change” value is -0.0779.

On to RRIRPRPPRLPRPRPRPRKGPRP, for which the “shrunken log2 fold change” value amounted to 0.322.

In the case of RRIRVRPPRLPRPRPRPHNKPRP, the “shrunken log2 fold change” value is -0.63.

As to RRIRRRPPRLPRPRPRPNVGPRP, the “shrunken log2 fold change” value was 0.0319.

Take RRIRHRPPRLPRPRPRPLWGPRP: the “shrunken log2 fold change” value is -0.107.

With RRIRARPPRLPRPRPRPSVLPRP, the “shrunken log2 fold change” value was -0.167.

Take RRIRSRPPRLPRPRPRPMYDPRP: the “shrunken log2 fold change” value is 0.0313.

With RRIRVRPPRLPRPRPRPMCYPRP, the “shrunken log2 fold change” value was -0.306.

As for RRIRPRPPRLPRPRPRPCFYPRP, the “shrunken log2 fold change” value was -0.242.

Regarding RRIRERPPRLPRPRPRPQCHPRP, the “shrunken log2 fold change” value is -0.449.

Consider RRIRHRPPRLPRPRPRPKFFPRP, for which the “shrunken log2 fold change” value is -0.0649.

With RRIRNRPPRLPRPRPRPVGQPRP, the “shrunken log2 fold change” value was -0.185.

In the case of RRIRFRPPRLPRPRPRPDPDPRP, the “shrunken log2 fold change” value was -0.113.

For RRIRMRPPRLPRPRPRPDRSPRP, the “shrunken log2 fold change” value was -0.178.

Take RRIRYRPPRLPRPRPRPCIGPRP: the “shrunken log2 fold change” value was -0.644.

As for RRIRGRPPRLPRPRPRPPSEPRP, the “shrunken log2 fold change” value is 0.856.

Take RRIRNRPPRLPRPRPRPSNSPRP: the “shrunken log2 fold change” value was -0.235.

As to RRIRGRPPRLPRPRPRPTKIPRP, the “shrunken log2 fold change” value is 0.462.

As to RRIRTRPPRLPRPRPRPRHKPRP, the “shrunken log2 fold change” value worked out at 0.123.

On to RRIRLRPPRLPRPRPRPSQSPRP, for which the “shrunken log2 fold change” value was -0.511.

In the case of RRIRHRPPRLPRPRPRPCYEPRP, the “shrunken log2 fold change” value is -0.185.

Take RRIRIRPPRLPRPRPRPVRLPRP: the “shrunken log2 fold change” value amounted to 0.499.

Take RRIRTRPPRLPRPRPRPPWQPRP: the “shrunken log2 fold change” value is 0.698.

On to RRIRCRPPRLPRPRPRPYMGPRP, for which the “shrunken log2 fold change” value is -0.017.

For RRIRRRPPRLPRPRPRPRMGPRP, the “shrunken log2 fold change” value was 0.136.

With RRIRERPPRLPRPRPRPDHWPRP, the “shrunken log2 fold change” value came to 0.0945.

In the case of RRIRMRPPRLPRPRPRPDKDPRP, the “shrunken log2 fold change” value was found to be 1.24.

On to RRIRERPPRLPRPRPRPRHSPRP, for which the “shrunken log2 fold change” value is -0.137.

In the case of RRIRSRPPRLPRPRPRPSEIPRP, the “shrunken log2 fold change” value was determined as 0.0398.

In the case of RRIRPRPPRLPRPRPRPHWDPRP, the “shrunken log2 fold change” value is -0.208.

Turning to RRIRGRPPRLPRPRPRPARFPRP, the “shrunken log2 fold change” value worked out at 0.683.

RRIRHRPPRLPRPRPRPFWKPRP: the “shrunken log2 fold change” value was -0.0724.

RRIRIRPPRLPRPRPRPPTRPRP: the “shrunken log2 fold change” value was found to be 0.251.

RRIRLRPPRLPRPRPRPDNEPRP: the “shrunken log2 fold change” value is -0.162.

Consider RRIRPRPPRLPRPRPRPIFHPRP, for which the “shrunken log2 fold change” value was -0.0968.

As to RRIRSRPPRLPRPRPRPCVRPRP, the “shrunken log2 fold change” value was -0.103.

On to RRIRWRPPRLPRPRPRPGNRPRP, for which the “shrunken log2 fold change” value was -0.00977.

Take RRIRNRPPRLPRPRPRPASVPRP: the “shrunken log2 fold change” value was -0.0792.

Take RRIRCRPPRLPRPRPRPREIPRP: the “shrunken log2 fold change” value was 0.218.

RRIRMRPPRLPRPRPRPNHPPRP: the “shrunken log2 fold change” value was -0.0733.

Turning to RRIRIRPPRLPRPRPRPFPKPRP, the “shrunken log2 fold change” value is -0.101.

Regarding RRIRWRPPRLPRPRPRPSPHPRP, the “shrunken log2 fold change” value was -0.0688.

Consider RRIRHRPPRLPRPRPRPDMMPRP, for which the “shrunken log2 fold change” value is -0.21.

Consider RRIRSRPPRLPRPRPRPPMRPRP, for which the “shrunken log2 fold change” value was 1.02.

Regarding RRIRSRPPRLPRPRPRPKPSPRP, the “shrunken log2 fold change” value amounted to 0.263.

In the case of RRIRARPPRLPRPRPRPYDYPRP, the “shrunken log2 fold change” value is -0.282.

RRIRSRPPRLPRPRPRPIRWPRP: the “shrunken log2 fold change” value stood at 0.0723.

Turning to RRIRCRPPRLPRPRPRPKCCPRP, the “shrunken log2 fold change” value is 0.0554.

As to RRIRMRPPRLPRPRPRPLYFPRP, the “shrunken log2 fold change” value is -0.302.

As to RRIRLRPPRLPRPRPRPVGKPRP, the “shrunken log2 fold change” value was -0.0227.

On to RRIRPRPPRLPRPRPRPNQVPRP, for which the “shrunken log2 fold change” value amounted to 0.0456.

Regarding RRIRDRPPRLPRPRPRPKQPPRP, the “shrunken log2 fold change” value was -0.0112.

Regarding RRIRKRPPRLPRPRPRPWQWPRP, the “shrunken log2 fold change” value was 0.0199.

As to RRIRRRPPRLPRPRPRPCYQPRP, the “shrunken log2 fold change” value is -0.16.

On to RRIRSRPPRLPRPRPRPANRPRP, for which the “shrunken log2 fold change” value turned out to be 0.223.

For the sequence RRIRYRPPRLPRPRPRPPCHPRP, the “shrunken log2 fold change” value was -0.285.

In the case of RRIRLRPPRLPRPRPRPEALPRP, the “shrunken log2 fold change” value was -0.00171.

As for RRIRFRPPRLPRPRPRPLNWPRP, the “shrunken log2 fold change” value is -0.109.

Regarding RRIRPRPPRLPRPRPRPDPWPRP, the “shrunken log2 fold change” value was -0.0279.

For RRIRCRPPRLPRPRPRPSFNPRP, the “shrunken log2 fold change” value was -0.882.

As for RRIRKRPPRLPRPRPRPQVNPRP, the “shrunken log2 fold change” value is -0.124.

Turning to RRIRARPPRLPRPRPRPARFPRP, the “shrunken log2 fold change” value was 1.03.

RRIRERPPRLPRPRPRPVTEPRP: the “shrunken log2 fold change” value was -0.255.

With RRIRVRPPRLPRPRPRPESGPRP, the “shrunken log2 fold change” value was found to be 0.177.

Turning to RRIRIRPPRLPRPRPRPNEEPRP, the “shrunken log2 fold change” value was -0.179.

With RRIRDRPPRLPRPRPRPAACPRP, the “shrunken log2 fold change” value is 0.598.

Regarding RRIRHRPPRLPRPRPRPHDHPRP, the “shrunken log2 fold change” value was -1.24.

Consider RRIRLRPPRLPRPRPRPFKRPRP, for which the “shrunken log2 fold change” value was -0.09.

With RRIRGRPPRLPRPRPRPPLQPRP, the “shrunken log2 fold change” value came to 0.641.

As for RRIRIRPPRLPRPRPRPNPPPRP, the “shrunken log2 fold change” value came out at 0.125.

For RRIRWRPPRLPRPRPRPRLSPRP, the “shrunken log2 fold change” value came to 0.154.

As for RRIRWRPPRLPRPRPRPFWSPRP, the “shrunken log2 fold change” value was found to be 0.284.

With RRIRPRPPRLPRPRPRPPDVPRP, the “shrunken log2 fold change” value was 0.274.

With RRIRYRPPRLPRPRPRPRPGPRP, the “shrunken log2 fold change” value was found to be 0.219.

As for RRIRARPPRLPRPRPRPAQPPRP, the “shrunken log2 fold change” value turned out to be 0.723.

As to RRIRCRPPRLPRPRPRPYTSPRP, the “shrunken log2 fold change” value was -0.526.

With RRIRLRPPRLPRPRPRPGPMPRP, the “shrunken log2 fold change” value amounted to 0.255.

In the case of RRIRTRPPRLPRPRPRPPHQPRP, the “shrunken log2 fold change” value is 0.237.

As to RRIRCRPPRLPRPRPRPIIYPRP, the “shrunken log2 fold change” value was -0.739.

With RRIRYRPPRLPRPRPRPHYIPRP, the “shrunken log2 fold change” value was -0.318.

Turning to RRIRTRPPRLPRPRPRPHALPRP, the “shrunken log2 fold change” value came to 0.0575.

With RRIRPRPPRLPRPRPRPPVSPRP, the “shrunken log2 fold change” value came out at 0.0379.

For RRIRIRPPRLPRPRPRPRFRPRP, the “shrunken log2 fold change” value was 0.0756.

Turning to RRIRCRPPRLPRPRPRPYCDPRP, the “shrunken log2 fold change” value was -0.623.

Consider RRIRLRPPRLPRPRPRPMDVPRP, for which the “shrunken log2 fold change” value worked out at 0.0104.

Regarding RRIRNRPPRLPRPRPRPCRGPRP, the “shrunken log2 fold change” value is -0.0345.

Turning to RRIRMRPPRLPRPRPRPRFVPRP, the “shrunken log2 fold change” value worked out at 0.236.

As for RRIRMRPPRLPRPRPRPMESPRP, the “shrunken log2 fold change” value is -0.00987.

Turning to RRIRTRPPRLPRPRPRPGTWPRP, the “shrunken log2 fold change” value was -0.0246.

As for RRIRERPPRLPRPRPRPEKMPRP, the “shrunken log2 fold change” value is -0.421.

For the sequence RRIRVRPPRLPRPRPRPEEHPRP, the “shrunken log2 fold change” value is -0.0681.

As to RRIRQRPPRLPRPRPRPIAFPRP, the “shrunken log2 fold change” value is -0.168.

As to RRIRRRPPRLPRPRPRPEVKPRP, the “shrunken log2 fold change” value is 0.418.

For the sequence RRIRNRPPRLPRPRPRPYHHPRP, the “shrunken log2 fold change” value was -0.207.

For RRIRFRPPRLPRPRPRPEGQPRP, the “shrunken log2 fold change” value is 0.15.

For RRIRERPPRLPRPRPRPKGPPRP, the “shrunken log2 fold change” value was found to be 0.0237.

Consider RRIRDRPPRLPRPRPRPRLGPRP, for which the “shrunken log2 fold change” value came to 0.829.

As for RRIRDRPPRLPRPRPRPQCTPRP, the “shrunken log2 fold change” value was 0.191.

Regarding RRIRIRPPRLPRPRPRPYCHPRP, the “shrunken log2 fold change” value was -0.743.

With RRIRIRPPRLPRPRPRPFWVPRP, the “shrunken log2 fold change” value is -0.2.

For RRIRLRPPRLPRPRPRPTKPPRP, the “shrunken log2 fold change” value was 0.0884.

Turning to RRIRDRPPRLPRPRPRPIVMPRP, the “shrunken log2 fold change” value is -0.0257.
